Experimental data reported in US20110008356A1.

Biological target: Human IL-17RC:Fc (human) (UniProt Q8NAC3)
Test: SPR (BIAcore 3000), receptor:Fc captured by anti-human Fc, cytokine as analyte, koff/kon, 1:1 Langmuir fit

Human IL-17A, sequence (Q16552 20-155 limits assumed): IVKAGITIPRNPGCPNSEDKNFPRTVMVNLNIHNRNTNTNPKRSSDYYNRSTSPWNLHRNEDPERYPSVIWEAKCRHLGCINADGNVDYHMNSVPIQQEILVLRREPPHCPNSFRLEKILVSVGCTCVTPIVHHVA

Kd [nM] | Substance
0.05 | Human IL-17A (from UniProt Q16552 20-155) (ligand)
0.03 | Mouse IL-17F (from UniProt Q7TNI7 29-161) (ligand)
